This experiment deals with p75 (Homo sapiens (Human)) (UniProt P08138). The experiment can be described thus: ELISA, format not described. On the technique in general: An ELISA detects its analyte on a solid surface through an enzyme-linked reagent.

A word on the EC50: it is the concentration at which the effect is half-maximal. A high value points to lower potency in that assay.

Sequence of UniProt P08138 (P08138 29-250 limits assumed): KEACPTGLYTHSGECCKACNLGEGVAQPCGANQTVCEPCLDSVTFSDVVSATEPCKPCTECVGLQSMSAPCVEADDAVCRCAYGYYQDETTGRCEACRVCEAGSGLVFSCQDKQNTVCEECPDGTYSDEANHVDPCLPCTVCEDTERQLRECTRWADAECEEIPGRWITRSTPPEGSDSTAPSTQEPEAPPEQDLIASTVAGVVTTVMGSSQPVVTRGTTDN

In the case of “Amyloid Precursor Protein (from UniProt P05067 18-286) (ligand)”, the EC50 turned out to be 300 nM.

Source of the values: patent US20110110942A1.
